Measured values from PMC1260013 (BMC Biochemistry, 2005).

How the values were obtained:
[1] = tested on: O=C(O)CC(C(=O)O)C(O)C(=O)O; test: purified protein; conditions: pH 7.5; 25.0 °C
[2] = tested on: NC(=O)c1ccc[n+]([C@@H]2O[C@H](COP(=O)(O)OP(=O)(O)OC[C@H]3O[C@@H](n4cnc5c(N)ncnc54)[C@H](OP(=O)(O)O)[C@@H]3O)[C@@H](O)[C@H]2O)c1; test: purified protein; conditions: pH 7.5; 25.0 °C; varied: cofactor
M. tb ICD-2 = M. tb ICD-2 (Mycobacterium tuberculosis, UniProt O53611); test: biochemical
Sequence of M. tb ICD-2 (O53611 whole entry): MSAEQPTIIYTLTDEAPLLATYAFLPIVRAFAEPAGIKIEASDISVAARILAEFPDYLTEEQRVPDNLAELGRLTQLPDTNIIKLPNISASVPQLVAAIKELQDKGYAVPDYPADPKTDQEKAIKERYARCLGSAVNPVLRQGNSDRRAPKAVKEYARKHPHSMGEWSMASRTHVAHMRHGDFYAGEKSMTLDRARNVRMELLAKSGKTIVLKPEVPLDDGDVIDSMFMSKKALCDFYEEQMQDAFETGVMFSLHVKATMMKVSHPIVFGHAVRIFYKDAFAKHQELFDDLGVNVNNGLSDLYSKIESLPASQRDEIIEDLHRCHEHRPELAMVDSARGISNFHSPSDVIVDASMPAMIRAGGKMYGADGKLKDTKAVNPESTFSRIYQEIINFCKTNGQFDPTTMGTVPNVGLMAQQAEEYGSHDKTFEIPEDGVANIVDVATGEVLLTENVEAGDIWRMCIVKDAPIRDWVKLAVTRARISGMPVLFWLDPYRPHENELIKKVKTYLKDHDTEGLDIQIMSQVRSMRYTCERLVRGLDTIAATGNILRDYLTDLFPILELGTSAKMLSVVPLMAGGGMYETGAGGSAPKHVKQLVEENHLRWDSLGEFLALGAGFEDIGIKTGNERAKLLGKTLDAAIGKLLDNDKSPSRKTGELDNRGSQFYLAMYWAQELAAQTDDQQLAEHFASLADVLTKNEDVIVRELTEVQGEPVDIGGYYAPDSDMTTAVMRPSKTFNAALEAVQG

Row | Compound | Km [1] | Vmax [1] | Km [2] | Vmax [2] | Ki (M. tb ICD-2)
1 | M. tb ICD-1 (Mycobacterium tuberculosis H37Rv) | 10 ± 5 µM | 380 μM NADPH/min | 125 ± 5 µM | 400 μM NADPH/min | 
2 | NC(=O)C1=CN([C@@H]2O[C@H](COP(=O)(O)OP(=O)(O)OC[C@H]3O[C@@H](n4cnc5c(N)ncnc54)[C@H](OP(=O)(O)O)[C@@H]3O)[C@@H](O)[C@H]2O)C=CC1 [NADPH] |  |  |  |  | 4.6 µM
